Data from article PMC3097154 (2011).

Biological target: the molecule itself
Experiment: ITC

B1: HIV-1 capsid CTD CTD (protein)
chain: not shown
Kd: ~15 µM
